# Results as given in article PMC8549118 (Nature structural & molecular biology, 2021).
# Non-standard residues stand in square brackets, D forms with d. No end group written: not given here. pT = C[C@@H](OP(=O)(O)O)[C@H](N)C(=O)O; pS = N[C@@H](COP(=O)(O)O)C(=O)O
# T1: VSP-C363S (voltage-sensing phosphatase, aa 241-576) (C. intestinalis, UniProt Q4W8A1 241-576, C363S)
# T1 sequence (looked up): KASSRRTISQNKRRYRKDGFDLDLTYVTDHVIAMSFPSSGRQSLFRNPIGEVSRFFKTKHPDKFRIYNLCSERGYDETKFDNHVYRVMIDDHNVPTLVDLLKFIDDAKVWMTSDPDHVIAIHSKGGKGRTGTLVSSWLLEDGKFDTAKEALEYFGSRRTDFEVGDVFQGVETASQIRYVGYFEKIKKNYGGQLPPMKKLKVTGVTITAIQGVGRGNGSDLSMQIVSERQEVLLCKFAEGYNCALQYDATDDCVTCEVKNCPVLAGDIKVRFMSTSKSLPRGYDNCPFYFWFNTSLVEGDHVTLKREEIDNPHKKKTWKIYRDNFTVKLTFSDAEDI
# B1: 4p-T2, tetraphosphorylated PTEN C-tail peptide (15 aa) (peptide)
# peptide: CRY[pS]D[pT][pT]D[pS]DPENEG
# Target: T1, VSP-C363S (voltage-sensing phosphatase, …)
# Experiment: fluorescence polarisation
binder,measurement,value
B1,binding result,binds
